B1: STEAP1 (parent)
chain: LWKMKPRRNLEEDDYLHKDTGETS
B2: KRT18 (parent)
chain: PQVRDWSHYFKIIEDLRAQIFANT

Variants of: B1
Experiment: protein stability index of a GFP-peptide fusion (GPS, HEK-293T) (PSI 1-6); higher = more stable
Conditions: c terminus: a fixed tail appended
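Note: lentivirally expressed fusions sorted by FACS into six bins by GFP to DsRed ratio, PSI derived from sequencing read proportions per bin multiplied by bin number.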

Going from P6Y to P6L, the protein stability index falls from 3.96 to 3.86.

Compared with P6S, P6C is lower in protein stability index: 4.57 for the first, 3.52 for the second.

Going from D14E to D14N, the protein stability index falls from 4.63 to 4.4.

Going from D14H to D14Q, the protein stability index rises from 4.18 to 4.32.

Compared with D14G, D14W is lower in protein stability index: 4.31 for the first, 3.11 for the second.

First: D14S
Second: D14A
The protein stability index of the first is lower: 4.18 for the first, 4.21 for the second.

Compared with D14C, D14P is higher in protein stability index: 4.23 for the first, 4.34 for the second.

Going from D14I to D14M, the protein stability index rises from 3.84 to 4.

First: D14L
Second: D14F
The protein stability index of the first is higher: 3.8 for the first, 3.74 for the second.

First: D14R
Second: D14Y
The protein stability index of the first is higher: 4.7 for the first, 3.87 for the second.

First: D14K
Second: D14T
The protein stability index of the first is higher: 4.53 for the first, 4.46 for the second.

Going from D14V to M4P, the protein stability index rises from 4.07 to 4.41.

Going from M4K to M4Y, the protein stability index rises from 4.19 to 4.41.

Compared with M4Q, M4G is lower in protein stability index: 4.95 for the first, 4.86 for the second.

Going from M4N to M4A, the protein stability index falls from 4.69 to 4.43.

Going from M4C to M4F, the protein stability index falls from 4.27 to 3.99.

Going from M4T to M4V, the protein stability index falls from 4.62 to 4.41.

Compared with M4I, M4E is higher in protein stability index: 4.36 for the first, 4.94 for the second.

Going from M4S to M4H, the protein stability index rises from 4.69 to 4.81.

First: M4L
Second: M4R
The protein stability index of the first is higher: 4.55 for the first, 4.47 for the second.

Going from M4D to M4W, the protein stability index falls from 5.16 to 4.14.

First: L16K
Second: L16A
The protein stability index of the first is lower: 4.59 for the first, 4.74 for the second.

First: L16E
Second: L16C
The protein stability index of the first is higher: 4.79 for the first, 4.63 for the second.

Compared with L16D, L16G is higher in protein stability index: 4.92 for the first, 5.08 for the second.

Going from L16I to L16F, the protein stability index rises from 4.23 to 4.26.

Going from L16H to L10I, the protein stability index rises from 4.36 to 4.67.

First: L10T
Second: L10R
The protein stability index of the first is higher: 4.69 for the first, 4.24 for the second.

Going from L10N to L10Q, the protein stability index rises from 4.4 to 4.72.

Going from L10H to L10C, the protein stability index falls from 4.22 to 3.9.

Compared with L10S, L10K is lower in protein stability index: 5.12 for the first, 4.48 for the second.

First: L10W
Second: L10F
The protein stability index of the first is higher: 4.41 for the first, 4.24 for the second.

First: L10D
Second: L10A
The protein stability index of the first is higher: 4.9 for the first, 4.86 for the second.

Going from L10G to L10E, the protein stability index rises from 4.02 to 4.89.

Going from L10V to L10M, the protein stability index falls from 4.34 to 4.26.

Compared with L10Y, L10P is higher in protein stability index: 4.1 for the first, 4.86 for the second.

Going from E11Q to E11D, the protein stability index falls from 4.12 to 4.

First: E11W
Second: E11M
The protein stability index of the first is lower: 3.22 for the first, 3.96 for the second.

Going from E11A to E11H, the protein stability index rises from 3.89 to 4.26.

Going from E11G to E11I, the protein stability index falls from 3.93 to 3.82.

First: E11S
Second: E11T
The protein stability index of the first is lower: 4.06 for the first, 4.15 for the second.

First: E11N
Second: E11L
The protein stability index of the first is lower: 3.83 for the first, 3.88 for the second.

Going from E11V to E11F, the protein stability index falls from 4.28 to 3.61.

Compared with E11K, E11C is lower in protein stability index: 4.58 for the first, 3.79 for the second.

Going from E11P to E11R, the protein stability index falls from 4.2 to 4.04.

First: E11Y
Second: R7M
The protein stability index of the first is lower: 3.09 for the first, 4.51 for the second.

Compared with R7D, R7C is lower in protein stability index: 5.25 for the first, 4.26 for the second.

Going from R7I to R7H, the protein stability index rises from 4.26 to 4.69.

Going from R7V to R7T, the protein stability index rises from 4.14 to 4.85.

Going from R7S to R7K, the protein stability index rises from 4.58 to 4.69.

First: R7A
Second: R7Y
The protein stability index of the first is higher: 4.83 for the first, 3.94 for the second.

Compared with R7F, R7E is higher in protein stability index: 3.55 for the first, 4.47 for the second.

Going from R7L to R7P, the protein stability index rises from 4.4 to 4.62.

Compared with R7Q, R7W is lower in protein stability index: 4.62 for the first, 4.07 for the second.

Compared with R7G, R7N is higher in protein stability index: 4.42 for the first, 4.71 for the second.

Compared with R8M, R8S is lower in protein stability index: 4.6 for the first, 4.43 for the second.

First: R8A
Second: R8T
The protein stability index of the first is higher: 4.61 for the first, 4.47 for the second.

Compared with R8Y, R8W is lower in protein stability index: 4.04 for the first, 3.82 for the second.

Compared with R8V, R8E is higher in protein stability index: 4.08 for the first, 4.83 for the second.

Compared with R8F, R8I is higher in protein stability index: 3.93 for the first, 4.22 for the second.

Going from R8K to R8Q, the protein stability index rises from 4.49 to 4.67.

Compared with R8P, R8L is lower in protein stability index: 4.61 for the first, 4.03 for the second.

Going from R8D to R8N, the protein stability index falls from 4.74 to 4.53.

Going from R8G to R8C, the protein stability index falls from 4.07 to 3.79.

For R8H, the protein stability index was 4.1.

Variants of: B2
Experiment: as above
Conditions: c terminus: a fixed tail appended

Compared with N23H, N23D is higher in protein stability index: 2.35 for the first, 2.43 for the second.

Going from N23L to N23K, the protein stability index falls from 2.53 to 2.06.

Compared with N23I, N23R is higher in protein stability index: 1.93 for the first, 2.57 for the second.

Going from N23A to N23P, the protein stability index rises from 1.86 to 1.91.

Going from N23M to N23W, the protein stability index falls from 2.1 to 1.95.

First: N23T
Second: N23F
The protein stability index of the first is higher: 1.56 for the first, 1.22 for the second.

Compared with N23C, N23Y is lower in protein stability index: 2.36 for the first, 1.56 for the second.

Compared with N23V, N23Q is lower in protein stability index: 2.08 for the first, 1.86 for the second.

Going from N23S to N23E, the protein stability index rises from 2.33 to 2.8.

Compared with T24M, T24I is lower in protein stability index: 2.81 for the first, 2.6 for the second.

First: T24G
Second: T24P
The protein stability index of the first is lower: 2.5 for the first, 2.84 for the second.

Compared with T24Y, T24K is higher in protein stability index: 1.72 for the first, 2.53 for the second.

Going from T24D to T24W, the protein stability index falls from 2.75 to 2.27.

Compared with T24R, T24N is higher in protein stability index: 2.23 for the first, 2.74 for the second.

Compared with T24Q, T24H is lower in protein stability index: 2.47 for the first, 2.43 for the second.

First: T24L
Second: T24F
The protein stability index of the first is lower: 2.31 for the first, 2.34 for the second.

Compared with T24A, T24E is higher in protein stability index: 1.9 for the first, 3.47 for the second.

First: T24C
Second: T24S
The protein stability index of the first is lower: 2.02 for the first, 2.31 for the second.

Going from T24V to A22Y, the protein stability index falls from 2.04 to 1.64.

First: A22V
Second: A22W
The protein stability index of the first is higher: 2.01 for the first, 1.41 for the second.

From the supplement of paper PMC10567573
